Reference: article doi:10.1101/2021.12.31.474618

Target: OsCBMIP-His (OsRMC-His), secreted from rice suspension-cultured cells (rice)
Test: BLI

With “MoCel6A as used for binding kinetics (BLItz) (enzyme)” the Kd was 21.9 nM, the koff was 0.000845 s⁻¹ and the kon was 38900 M⁻¹ s⁻¹.
